Results taken from patent publication US20140024050A1 (published 2014).
Bridges are numbered along the chain shown (N, C = ends). Where no end group is shown, it is not given here.

T1: Alexa-488 labeled PIVKAII Gla domain peptide (13-27), cyclized (disulfide 5-10 (inferred); also: Alexa Fluor 488 attached via TFP active ester, site not given here)
T1 construct: also called Alexa488-PIVKAII (13-27); Alexa488-PIVKAII peptide (13-27 cyc)
T1 peptide: LERECVEETCSYEEA

B1: Gla domain Protein S peptide (sequence 15) (peptide)
peptide: LERECIEELCNKEEA
notes: also called PIVKAII Gla domain (13-27) analog; PIVKAII peptide analog
B2: anti-PIVKA-II monoclonal antibody 3C10 (hybridoma-derived) (antibody, V domains shown)
VH: EVQLVESGGDLVKPGGSLKLSCAASGFTFSSYGMSWVRQTPDKRLEWVATISRGGSSTYYPDSVKGRFTISRDNAKNNLYLQMSSLKSEDTAMYYCASLNYGNFFDYWGQGTTLTVSS
VL: DVVMTQTPLSLPVSLGDQASISCRSSQSLVHSNGNTYLHWYLQKPGQSPKLLIYKVSNRFSGVPDRFSGSGSGTDFTLKISRVEAEDLGVYFCSQNRHVPPTFGGGTKLEIKR
notes: Mouse monoclonal from a GANP transgenic C57BL/6 mouse immunized with PIVKA-II 13-27 peptide-KLH; For the Kd by quenching the antibody carried Black Hole Quencher (I.R. 2.3); also called mAb 3C10; clone 3C10
B3: Gla domain Protein C peptide (sequence 14) (peptide)
peptide: LERECIEEICDFEEA
notes: as for B1
B4: Gla domain Factor IX peptide (sequence 11) (peptide)
peptide: LERECMEEKCSFEEA
notes: as for B1
B5: Gla domain Protein Z peptide (sequence 16) (peptide)
peptide: LEKECYEEICVYEEA
notes: as for B1
B6: Gla domain Factor VII peptide (sequence 13) (peptide)
peptide: LERECKEEQCSFEEA
notes: as for B1
B7: Gla domain Factor X peptide (sequence 12) (peptide)
peptide: LERECMEETCSYEEA
notes: as for B1

Tests used:
[1] = target: B2; experiment: FCS displacement: 2 nM Alexa488-PIVKAII (13-27) premixed with 10 nM mAb 3C10, analog added, overnight
Description: (§1) Then, various PIVKAII Gla domain (13-27) analogs were added to the sample. PIVKAII (13-27) was added as a positive control, and the original sample was used as a negative control. FCS measurements were performed on each sample after overnight incubation.

[2] = target: T1, Alexa-488 labeled PIVKAII Gla domain …; experiment: fluorescence quenching (FRET) titration in solution, BHQ-labeled mAb, 0.05 nM Alexa488 peptide
Description: The binding curve was fit with a simple fitting model.
All binding measurements were performed in 10 mM HEPES buffer, pH 7.4, containing 0.15M NaCl, 3 mM EDTA, and 0.005% surfactant P20.

[3] = target: T2, PIVKA-II antigen (heat-decarboxylated prothrombin) (UniProt P00734 44-622, Gla residues of the Gla domain decarboxylated to glutamic acid by heating dried prothrombin powder at 110 C for 8 hours); experiment: FCS displacement of Alexa488-PIVKAII (13-27) from mAb 3C10 by PIVKA-II preparations
T2 construct: Residues 13-27 are counted on the Gla domain
Description: Various amounts of PIVKAII from different preparations were added to the antigen-antibody complex. After overnight incubation, FCS measurements were performed on each sample.

[4] = target: B2; experiment: FCS displacement of Alexa488-PIVKAII (13-27) from mAb 3C10, positive control
Description: as §1

| binding result [1] | Binder | other results |
| --- | --- | --- |
| no binding | B1 | – |
| – | B2 | Kd [2]: 0.15 nM; binding result [3]: binds |
| no binding | B3 | – |
| no binding | B4 | – |
| no binding | B5 | – |
| no binding | B6 | – |
| – | LERECVEETCSYEEA (also called PIVKA-II peptide (13-27)) [PIVKAII (13-27) peptide, unlabeled] | binding result [4]: binds |
| no binding | B7 | – |
